Patent US20240376180A1

Target: SARS-CoV spike on S-pseudotyped MLV virions (SARS-CoV)
Experiment: cell-based or functional assay

With COVA1-16 (antibody) the percent neutralization of pseudovirus at 200 µg, antibody alone was 28%.
